Measurements published in patent US7405286B2, “Stars—A muscle-specific actin-binding protein” (The Board of Regents of the University of Texas System, priority 2002, dated 2008).
“Also recorded” adds a separate entry of the source.

Legend:
F-actin = assay: Immunofluorescence / Phalloidin-TRITC staining of transfected COS cells; assay type: cell-based; details: transfected COS cells, Myc-tagged proteins
Description: (§1) Transient Transfections, Reporter Assays and Immunofluorescence Microscopy. COS cells were maintained in DMEM with 10% FBS. Eighteen hours after plating, the medium was changed to serum-free medium and transfections were performed at 50% confluency using FuGENE reagent-6 (Roche Molecular Biochemicals) following manufacturer's instructions. Each transfection used 0.15 μg of plasmid DNA for the reporter assays, and 0.5-1.0 μg immunohistochemistry. Cytochalasin D 2 μM (Sigma-Aldrich), and Y-27632 75 μM (Tocris) were added directly just after transfection. Latrunculin B 0.5 μM (dissolved in 10% ethanol, Calbiochem) was added 12 hr after transfection and 10% ethanol (final concentration 0.01%) was added to control wells. Cells were harvested 36 hr after transfection and their luciferase and β-galactosidase activity were measured.
For measuring immunofluorescence, cells were rinsed with PBS and fixed in 4% paraformaldehyde for 10 min on ice. After rinsing with PBS, COS cells were incubated in 0.1% Triton X-100 in PBS for 5 min on ice. For rat neonatal cardiomyocytes, 1% Triton X-100 in PBS was used. Cells were blocked for 20 min at room temperature in 0.5% BSA in PBS for COS cells and in 1% BSA plus 3% goat serum in PBS for rat cardiomyocytes. Then, cells were incubated with first antibody diluted in 0.5% BSA in PBS for 30-60 min at room temperature or overnight at 4° C. Anti c-myc monoclonal antibody 9E10 (Santa Cruz) was used at a 1:200 dilution. Other antibodies were anti α-actinin monoclonal antibody (1:400; Sigma-Aldrich), α-tubulin antibody (1:2000; Sigma-Aldrich) and anti-vimentin antibody (1:500; Sigma-Aldrich). Secondary antibodies were anti mouse/rabbit IgG FITC or Texas red (Vector) used at a 1:200 dilution incubated with or without Phalloidin-TRITC (1:500; Sigma Aldrich).

SM22 promoter [1] = assay: SM22-luciferase reporter assay in transiently transfected COS cells; assay type: cell-based; details: for activation of SM22-luciferase / SRF transcription, in words: STARS and deletion mutants
Description: (§2) STARS Expression Plasmids. STARS expression constructs were generated using the pcDNA3.1 mammalian expression vector (Invitrogen) which was modified to contain an amino-terminal Myc-tag. Constitutively active RhoA (L63) and C3 transferase in Prk5 were generously provided by Dr. Alan Hall (University College, London, United Kingdom). The SM22-luciferase reporter 1343 bp promoter has been previously described (Li et al., 1995). The smooth muscle α actin-luciferase reporter contained the 4 kb promoter region ligated into the pBL3basic vector (Promega). The ANF reporter contained the 638 bp promoter region (a generous gift from Dr. Mona Nemer, Universite de Montreal, Montreal, Quebec, Canada). The 4× cfos reporter contained four tandem copies of the cfos CArG box with flanking sequences, as described (Chang et al., 2001). CMV-lacZ (Promega) was used as an internal control for transfection efficiency.
as §1

actin = assay: Co-immunoprecipitation of Myc-tagged proteins with actin in COS cells; assay type: binding; details: anti-Myc immunoprecipitation, anti-actin Western blot
Description: Western Blot and Co-immunoprecipitation Assay. Immunoprecipitation and western blot analysis was performed as described previously (Lu et al., 2000). For immunoprecipitation, cells were incubated with 1 μg anti c-myc polyclonal antibody A14 (Santa Cruz). Western blots were performed with anti-actin monoclonal antibody C4 (1:100; Roche Molecular Biochemicals) or anti c-myc monoclonal antibody 9E10 (1:1000; Santa Cruse) followed by incubation with secondary antibody HRP-conjugated anti mouse-IgG (Santa Cruse, Vector). To detect signals, blots were incubated with ECL (Santa Cruz) for 1 min, and exposed to film (Eastman Kodak Co).

SM22 promoter [2] = assay: SM22-luciferase reporter assay in F9 cells; assay type: cell-based; details: low endogenous SRF expression
[3] = tested on: atrial natriuretic factor (ANF) promoter; assay: ANF reporter assay in COS cells; assay type: cell-based
Description: as §2
(§3) Transient Transfections, Reporter Assays and Immunofluorescence Microscopy. COS cells were maintained in DMEM with 10% FBS. Eighteen hours after plating, the medium was changed to serum-free medium and transfections were performed at 50% confluency using FuGENE reagent-6 (Roche Molecular Biochemicals) following manufacturer's instructions. […] Cells were harvested 36 hr after transfection and their luciferase and β-galactosidase activity were measured.

[4] = tested on: E1b promoter linked to four tandem copies of the CArG box from the c-fos promoter; assay: 4× cfos CArG box reporter assay in COS cells; assay type: cell-based
Description: as §2, §3

[5] = tested on: α-smooth muscle actin promoter; assay: smooth muscle α actin-luciferase reporter assay in COS cells; assay type: cell-based
Description: as §2, §3

cytomegalovirus promoter = cytomegalovirus promoter reporter assay; assay type: cell-based; details: data not shown
Description: as §2, §3

| Molecule | bundling of actin stress fibers (F-actin) | activation of SM22-luciferase / SRF transcription, in words (SM22 promoter [1]; COS cells) | co-immunoprecipitation with actin (actin) | association with F-actin / actin stress fibers (F-actin) | also measured |
| --- | --- | --- | --- | --- | --- |
| Del248-262: small internal STARS deletion mutant within the conserved region (protein, left off: small tags and cut ends, small internal STARS deletion mutant within the conserved region) MAPGEKESGEGPAKSALRKIRTATLVISLARGWQQWANENSIRQAQEPTGWLPGGTQDSPQAPKPITPPTSHQKAQSAPKSPPRLPEGHGDGQSSEKAPEVSHIKKKEVSKTVVSKTYERGGDVSHLSHRYERDAGVLEPGQPENDIDRILHSHGSPTRRRKCANLVSELTKGWRVMEQEEPTWRSDSVDTEDSGYGGEAEERPEQDGVQVAVVRIKRPLPSQVNRFTEKLNCKAQQKYSPVGNLKGNPFSEEFDYELAMSTRLHKGDEGYGRPKEGTKTAERAKRAEEHIYREMMDMCFIICTMARHRRDGKIQVTFGDLFDRYVRISDKVVGILMRARKHGLVDFEGEMLWQGRDDHV | induce actin bundles | activate SRF transcription | weak actin-binding activity | – | – |
| Del234-247: small internal STARS deletion mutant within the conserved region (protein, left off: small tags and cut ends, small internal STARS deletion mutant within the conserved region) MAPGEKESGEGPAKSALRKIRTATLVISLARGWQQWANENSIRQAQEPTGWLPGGTQDSPQAPKPITPPTSHQKAQSAPKSPPRLPEGHGDGQSSEKAPEVSHIKKKEVSKTVVSKTYERGGDVSHLSHRYERDAGVLEPGQPENDIDRILHSHGSPTRRRKCANLVSELTKGWRVMEQEEPTWRSDSVDTEDSGYGGEAEERPEQDGVQVAVVRIKRPLPSQVNRFTEKLNCRWQQWADEHIQSQKLNPFSEEFDYELAMSTRLHKGDEGYGRPKEGTKTAERAKRAEEHIYREMMDMCFIICTMARHRRDGKIQVTFGDLFDRYVRISDKVVGILMRARKHGLVDFEGEMLWQGRDDHV | induce actin bundles | activate SRF transcription | weak actin-binding activity | – | – |
| Del263-279: small internal STARS deletion mutant within the conserved region (protein, left off: small tags and cut ends, small internal STARS deletion mutant within the conserved region) MAPGEKESGEGPAKSALRKIRTATLVISLARGWQQWANENSIRQAQEPTGWLPGGTQDSPQAPKPITPPTSHQKAQSAPKSPPRLPEGHGDGQSSEKAPEVSHIKKKEVSKTVVSKTYERGGDVSHLSHRYERDAGVLEPGQPENDIDRILHSHGSPTRRRKCANLVSELTKGWRVMEQEEPTWRSDSVDTEDSGYGGEAEERPEQDGVQVAVVRIKRPLPSQVNRFTEKLNCKAQQKYSPVGNLKGRWQQWADEHIQSQKLHKGDEGYGRPKEGTKTAERAKRAEEHIYREMMDMCFIICTMARHRRDGKIQVTFGDLFDRYVRISDKVVGILMRARKHGLVDFEGEMLWQGRDDHV | induce actin bundles | activate SRF transcription | weak actin-binding activity | – | – |
| N100: STARS deletion mutant lacking residues from the carboxy-terminus into the conserved region (protein, left off: small tags and cut ends, STARS deletion mutant lacking residues from the carboxy-terminus into the conserved region) MAPGEKESGEGPAKSALRKIRTATLVISLARGWQQWANENSIRQAQEPTGWLPGGTQDSPQAPKPITPPTSHQKAQSAPKSPPRLPEGHGDGQSSEKAPE | abolished the ability of STARS to bundle actin stress fibers | – | did not bind actin | did not affect the association with F-actin | – |
| C142: STARS deletion mutant that encoded only the conserved carboxy-terminal region (142 amino acids) (protein, left off: small tags and cut ends) KAQQKYSPVGNLKGRWQQWADEHIQSQKLNPFSEEFDYELAMSTRLHKGDEGYGRPKEGTKTAERAKRAEEHIYREMMDMCFIICTMARHRRDGKIQVTFGDLFDRYVRISDKVVGILMRARKHGLVDFEGEMLWQGRDDHV | increased stress fibers; also recorded: induce actin bundles | as effective as the full-length protein; also recorded: activate SRF transcription | co-immunoprecipitated with actin | associated with F-actin | – |
| N101-233: STARS deletion mutant lacking residues from the carboxy-terminus into the conserved region (protein, left off: small tags and cut ends, STARS deletion mutant lacking residues from the carboxy-terminus into the conserved region) VSHIKKKEVSKTVVSKTYERGGDVSHLSHRYERDAGVLEPGQPENDIDRILHSHGSPTRRRKCANLVSELTKGWRVMEQEEPTWRSDSVDTEDSGYGGEAEERPEQDGVQVAVVRIKRPLPSQVNRFTEKLNC | abolished the ability of STARS to bundle actin stress fibers | – | did not bind actin | did not affect the association with F-actin | – |
| STARS: novel 375-amino acid muscle-specific actin-binding protein, expressed from a Myc-tagged expression vector (protein, UniProt Q8BUZ1 1-375, looked up, Myc tag) Actin-binding Rho-activating …: MAPGEREREAGPAKSALRKVRTATLVINLARGWQQWANENSTKQAQEPAGWLPGATHDLPNAPKEAGPYQHAPKTLSPKPDRDGEGQHSEEATEVSHIKRKEVTRTVVSKAYERGGDVNYLSHRYENDGGVSEAIQPENDIDRILLSHDSPTRRRKCTNLVSELTKGWKVMEQEEPTWKSDSVDTEDSGYGGDMEERPEQDAAPVAPARIKRPLLSQANRYSETLNCKAHRKYSQVDNLKGRWQQWADEHVQSQKLNPFSDEFDYDLAMSTRLHKGDEGYGRPKEGSKTAERAKRAEEHIYREIMELCFVIRTMARHRRDGKIQVTFGELFDRYVRISDKVVGILMRARKHGLVHFEGEMLWQGRDDHVVITLLE | induced stress fiber formation and bundling | activate SRF transcription | co-immunoprecipitated with actin | strongly colocalized with F-actin | association with F-actin / actin stress fibers (F-actin; listed as STARS (wt)): strongly associates with F-actin; bundling of actin stress fibers (F-actin; listed as STARS (wt)): induces extremely thick bundles; bundling of actin stress fibers (F-actin; listed as Wild type STARS): induce actin bundles; effect on the SM22 promoter (SM22 promoter [2]): minimal effect; stimulation of ANF promoter [3]: did not stimulate; also recorded: could not activate; activation of E1b promoter with four c-fos CArG boxes [4]: activated; stimulation of α-smooth muscle actin promoter [5]: weakly stimulated; activation of the SM22 promoter (SM22 promoter [1]; COS cells, STARS or RhoA (L63) expression vector alone): comparable levels; increase of SM22 promoter activity by STARS (SM22 promoter [1]; COS cells, in the presence of CD (2 μM)): 18 fold; responsiveness of SM22 promoter with mutated CArG boxes (SM22 promoter [1]; COS cells, mutSM22 reporter): abolished responsiveness; stimulation of expression of SM22 luciferase reporter (SM22 promoter [1]; transiently transfected COS cells, STARS expression vector): 40 fold; activation of cytomegalovirus promoter (cytomegalovirus promoter): did not activate |
